Measured values: the supplement of paper PMC10126150
± gives the standard deviation of the averaged measurements.

Tested on: ATP
Experiment: switch fluorescence ratio, 500 uM ATP over buffer (Cy3 cluster intensity, sum of 5 cycles each) (fold (ratio)); higher = stronger signal-on switching upon ATP binding; sequences stand for … in TCGTCGGCAGCGTCAGATGTGTATAAGAGACAGTTTTTTTTTTTTTTTTTTTTTTTTT…TC
Conditions: aptamer strand: ATP DNA aptamer (quencher-CACCTGGGGGAGTATTGCGGAGGAAGG + anchor), 100 nM annealed; ATP concentration: 500 uM
Summary of the method: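 Per cluster, summed Cy3 intensity from the target cycles was divided by that from the buffer cycles to give the fluorescence ratio, then averaged per switch-domain sequence. Clusters outside 100-1000 RFU were excluded. The Cy3-labelled switching-strand clusters, on a modified Illumina MiSeq flow-cell, were annealed to 100 nM quencher-labelled ATP aptamer and imaged in selection buffer, then after 15 min with 500 uM ATP at 22 °C, for five cycles with NaOH stripping and re-annealing between them.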
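Also: ATP exposure 15 min at 22 °C before imaging.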

In order of falling switch fluorescence ratio:
1. CGCGATGTAC  3.82 ± 0.15
2. GGCGGGATCT  1.21 ± 0.26
3. ACGGTACGGA  1.21 ± 0.05
4. CCGGCTGGTG  1.197 ± 0.0056
5. GAAAAAACAC  1.16 ± 0.1
6. ATTATCCGCT  1.15 ± 0.014
7. TTGAAAGTGA  1.13 ± 0.25
8. TTTTAGGCCC  1.09 ± 0.073
9. TACATCCGAG  1.08 ± 0.029
10. GGTAATATTA  1.07 ± 0.051
11. CGATGAAGGC  1.07 ± 0.031
12. CGGTTAAGGC  1.07 ± 0.017
13. CGCTCACGGT  1.066 ± 0.0026
14. ACATTGAGGG  1.057 ± 0.0028
15. TTACTGTTG  1.05 ± 0.1
16. AATGGATACG  1.05 ± 0.019
17. TTTTATGGCG  1.04 ± 0.0024
18. TCGGAGGCCT  1.04 ± 0.04
19. GCGCTTTTGC  1.04 ± 0.061
20. AGGTGTTATG  1.03 ± 0.051
21. ATTGAAAGCA  1.03 ± 0.025
22. TAGGCACCGA  1.03 ± 0.053
23. AAGGTACTAC  1.03 ± 0.065
24. AGTGGAGGGC  1.03 ± 0.036
25. TTTGGGTAGG  1.03 ± 0.062
26. CCCGTATGTT  1.03 ± 0.018
27. CGCAGGTTTG  1.03 ± 0.011
28. GGTGTGCGGA  1.02 ± 0.024
29. GCATTGTGCC  1.02 ± 0.022
30. TTTCACACGT  1.02 ± 0.024
31. GGGGTAAGAG  1.019 ± 0.0038
32. TTTTTAACAC  1.02 ± 0.021
33. TTTTTCCTGA  1.02 ± 0.011
34. GCCCTGGGGC  1.013 ± 0.0075
35. GTCGTGGCGA  1.01 ± 0.02
36. TGGGGATAAT  1.01 ± 0.028
37. CTGTAATTGG  1.006 ± 0.001
38. TGTCGGGGGG  1.01 ± 0.028
39. ATTTATATCA  1.01 ± 0.024
40. AGGAAAGATT  1.01 ± 0.028
41. TTGCTCTTTG  1.0058 ± 0.00073
42. AACTCCAGTA  1.008 ± 0.005
43. GTGTAAGAGA  1.006 ± 0.0081
44. TAAGGGGCAA  1.01 ± 0.018
45. GGCCGTTCGT  1.008 ± 0.0091
46. AATCATATTA  1.01 ± 0.049
47. AGGAGTTATT  1 ± 0.024
48. TCGGTCCTGC  1 ± 0.024
49. GTTTAATTGG  1 ± 0.024
50. TTGGAAACAG  1 ± 0.014
51. AGTAGGGCTC  1 ± 0.046
52. CATTATAGGC  1.004 ± 0.002
53. CTGATGCGCG  1 ± 0.016
54. TCGTGTTCGA  1.001 ± 0.0094
55. TCGAAAAAGG  1.0045 ± 8.5e-06
56. GGGGGGTCGT  1 ± 0.05
57. GAAGTAGAGG  1 ± 0.032
58. CTTAGGGTTG  0.999 ± 0.013
59. GATGTTGAAT  0.998 ± 0.021
60. GCCAGTTGTC  0.998 ± 0.041
61. AAGAAAACGA  0.998 ± 0.011
62. GCGCCAGGCG  0.998 ± 0.025
63. ATTAAACCGG  0.997 ± 0.024
64. AAAATTATC  0.997 ± 0.019
65. AGGAGTAGTC  0.996 ± 0.021
66. CTTGGTGGTG  0.995 ± 0.019
67. GGTACTTCGA  0.9938 ± 0.0015
68. GTTAGGGGGT  0.994 ± 0.027
69. GAGGGGTGTG  0.993 ± 0.029
70. GGGGGGATGT  0.993 ± 0.027
71. CCGTTTTTGG  0.993 ± 0.016
72. TTTTTAGGTA  0.992 ± 0.017
73. AGGGTTAGCT  0.991 ± 0.02
74. AAGGGTCCAC  0.9907 ± 0.0079
75. TCTTGGTGT  0.9898 ± 0.0088
76. TTCATTTATT  0.9904 ± 0.0055
77. ATAAAACAAG  0.99 ± 0.027
78. TGCTTGCCTT  0.9886 ± 0.0096
79. GATGGTTTGT  0.988 ± 0.039
80. AGTATATGGG  0.988 ± 0.023
81. CAGGTTGAAC  0.9866 ± 0.0021
82. GTATGTAGTA  0.985 ± 0.0098
83. ATACGGATGG  0.984 ± 0.033
84. GCCTGGGGAA  0.9844 ± 0.0087
85. CCGTTGGTGG  0.983 ± 0.024
86. CAGTTTGGGG  0.982 ± 0.019
87. GGGGACTAGG  0.982 ± 0.058
88. GTTTAAAGAC  0.981 ± 0.02
89. GATAAATCGG  0.981 ± 0.024
90. CGATATGGGT  0.9801 ± 0.0026
91. AATTGCGTTG  0.979 ± 0.025
92. AGGAAGTTGG  0.97916 ± 0.00082
93. GCGATTCGGG  0.978 ± 0.01
94. AAAAGATAAA  0.977 ± 0.023
95. TGACGGTGTG  0.973 ± 0.02
96. GAGCTTTTGA  0.971 ± 0.04
97. AGTTGAATGT  0.9647 ± 0.0063
98. GTTTATCGGG  0.964 ± 0.0099
99. GGGCGGCTGC  0.955 ± 0.03
100. TGGATTATGA  0.955 ± 0.011
